Measured values: patent publication US20110033462A1 (published 2011)
Where two headings read alike, the source gives them in different places.

How the values were obtained:
[1] = target: T1, JEV SA14-14-2 envelope (E) protein on virions (Japanese encephalitis virus strain …, UniProt P0DOH7 295-794); assay: ELISA on JEV virions
T1 chain: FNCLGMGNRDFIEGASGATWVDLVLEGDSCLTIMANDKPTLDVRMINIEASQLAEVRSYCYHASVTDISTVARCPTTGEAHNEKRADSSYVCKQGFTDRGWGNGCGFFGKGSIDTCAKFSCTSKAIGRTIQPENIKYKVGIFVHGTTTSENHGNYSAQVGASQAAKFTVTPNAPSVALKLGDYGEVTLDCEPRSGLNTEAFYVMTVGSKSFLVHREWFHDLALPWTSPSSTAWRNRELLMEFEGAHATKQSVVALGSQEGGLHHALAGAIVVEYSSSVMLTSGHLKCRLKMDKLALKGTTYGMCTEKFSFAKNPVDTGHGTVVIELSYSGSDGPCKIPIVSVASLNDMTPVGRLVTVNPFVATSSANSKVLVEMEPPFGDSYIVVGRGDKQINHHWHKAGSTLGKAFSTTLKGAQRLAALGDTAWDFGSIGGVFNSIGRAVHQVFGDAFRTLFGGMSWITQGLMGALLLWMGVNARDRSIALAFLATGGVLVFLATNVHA

[2] = target: T1, JEV SA14-14-2 envelope (E) protein on …; assay: cell-based or functional assay
[3] = target: T1, JEV SA14-14-2 envelope (E) protein on …; assay: cell-based or functional assay
[4] = target: T1, JEV SA14-14-2 envelope (E) protein on …; assay: cell-based or functional assay
[5] = target: T2, recombinant JEV N-terminal 80% E protein (Japanese encephalitis virus strain …, UniProt P0DOH7 295-692); assay: SPR, recombinant E immobilized
T2 chain: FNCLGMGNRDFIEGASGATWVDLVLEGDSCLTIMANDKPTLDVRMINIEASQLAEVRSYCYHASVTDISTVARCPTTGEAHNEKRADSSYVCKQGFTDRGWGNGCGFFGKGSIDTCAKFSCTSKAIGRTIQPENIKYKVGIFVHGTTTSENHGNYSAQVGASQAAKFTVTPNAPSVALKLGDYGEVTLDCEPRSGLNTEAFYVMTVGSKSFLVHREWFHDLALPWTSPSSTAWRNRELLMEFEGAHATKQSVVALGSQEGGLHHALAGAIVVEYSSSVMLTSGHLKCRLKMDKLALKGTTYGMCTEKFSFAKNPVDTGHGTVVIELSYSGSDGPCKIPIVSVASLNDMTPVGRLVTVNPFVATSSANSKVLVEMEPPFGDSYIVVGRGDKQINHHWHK

DENV-3 (H87) virions = target: T3, DENV-3 (H87) virions (dengue virus type 3, strain H87, UniProt P27915 281-773); assay: ELISA, virion-coated plate
T3 construct: mature

DENV-4 (814669) virions = target: T4, DENV-4 (814669) virions (dengue virus type 4, strain 814669, UniProt P09866 280-774); assay: ELISA, virion-coated plate
T4 construct: mature
T4 sequence (P09866 280-774 limits assumed): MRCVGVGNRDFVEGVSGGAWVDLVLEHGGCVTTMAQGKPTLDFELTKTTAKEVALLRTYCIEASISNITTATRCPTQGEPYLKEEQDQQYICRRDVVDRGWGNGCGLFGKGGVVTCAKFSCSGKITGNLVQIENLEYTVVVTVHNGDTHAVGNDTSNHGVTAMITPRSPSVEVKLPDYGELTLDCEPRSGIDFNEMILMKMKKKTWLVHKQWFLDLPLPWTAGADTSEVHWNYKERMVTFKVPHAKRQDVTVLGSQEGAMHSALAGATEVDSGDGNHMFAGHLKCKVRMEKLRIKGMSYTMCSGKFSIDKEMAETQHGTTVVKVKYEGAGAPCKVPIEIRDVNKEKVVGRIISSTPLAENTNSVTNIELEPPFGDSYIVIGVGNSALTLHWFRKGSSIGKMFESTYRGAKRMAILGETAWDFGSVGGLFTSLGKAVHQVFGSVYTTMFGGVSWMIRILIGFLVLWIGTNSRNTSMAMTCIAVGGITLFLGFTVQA

[6] = target: T5, Langat virus (LGTV) strain TP 21 virions (Langat virus, strain TP 21, UniProt P29837 281-776); assay: ELISA, virion-coated plate
T5 construct: mature
T5 sequence: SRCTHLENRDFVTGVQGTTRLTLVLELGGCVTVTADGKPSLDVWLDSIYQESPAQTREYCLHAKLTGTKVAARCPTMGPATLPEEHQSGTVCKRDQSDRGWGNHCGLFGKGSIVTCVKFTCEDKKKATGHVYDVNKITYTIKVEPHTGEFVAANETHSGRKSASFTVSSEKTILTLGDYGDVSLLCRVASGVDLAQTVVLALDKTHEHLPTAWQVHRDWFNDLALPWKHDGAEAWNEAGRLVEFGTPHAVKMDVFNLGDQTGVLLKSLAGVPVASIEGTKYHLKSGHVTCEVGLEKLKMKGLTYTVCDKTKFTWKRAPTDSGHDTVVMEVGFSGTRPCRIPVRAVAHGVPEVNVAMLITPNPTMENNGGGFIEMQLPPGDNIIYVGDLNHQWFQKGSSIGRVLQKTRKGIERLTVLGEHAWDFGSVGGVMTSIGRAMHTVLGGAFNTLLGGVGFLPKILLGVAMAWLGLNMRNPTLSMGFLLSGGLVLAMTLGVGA

[7] = target: T1, JEV SA14-14-2 envelope (E) protein on …; assay: ELISA, virion-coated plate, Fab from ~100 µg/ml
[8] = target: T1, JEV SA14-14-2 envelope (E) protein on …; assay: ELISA on JEV virions (FIG. 4A), half maximum binding
[9] = target: T2, recombinant JEV N-terminal 80% E protein; assay: SPR (Biacore 3000), recombinant E immobilized, Fab in flow
[10] = target: T1, JEV SA14-14-2 envelope (E) protein on …; assay: ELISA on JEV virions captured by HMAF, concentration at half-maximal binding
[11] = target: T1, JEV SA14-14-2 envelope (E) protein on …; assay: cell-based or functional assay
[12] = target: JEV strain JE 1991 (genotype I) E protein on virus (Japanese encephalitis virus, strain JE …); assay: cell-based or functional assay
[13] = target: JEV strain JE B 1034/8 (genotype II) E protein on virus (Japanese encephalitis virus, strain JE …); assay: cell-based or functional assay
[14] = target: JEV strain Beijing (genotype III) E protein on virus (Japanese encephalitis virus, strain …); assay: cell-based or functional assay
[15] = target: JEV strain JKT 9092 (genotype IV) E protein on virus (Japanese encephalitis virus, strain JKT …); assay: cell-based or functional assay
[16] = target: T1, JEV SA14-14-2 envelope (E) protein on …; assay: cell-based or functional assay
[17] = target: T1, JEV SA14-14-2 envelope (E) protein on …; assay: cell-based or functional assay

B1: Fab B2 (Fab, V domains shown)
VH: VQLLEQSGSEVKKPGASVKVSCKASGYPFTDYAMSWVRQAPGQGLEYMGWIFTNSGNPTYAPGFAGRFVFSLDISVNTAYLHIDSLKPEDTAVYYCARGIVTPAASGDYFDSWGQGTLVTVSS
VL: ELVLTQSPSSLSASIGDRVTITCRASQHISSWLAWYQQKPGKAPKPLIYAASSLKSGVPSRFSGSGSGTDFTLTISGLQPEDFATYYCQQYENSPVTFGGGTKVEIKR
Kd [1]: 0.15 nM
PRNT50 titer [2]: 0.25 nM
PRNT50 [3]: 0.25 nM
PRNT50 titer [4]: 0.25 nM
fold faster off-rate than Fab A3 or E3 [5]: > 120 fold
fold weaker Kd than Fab A3 or E3 [5]: > 150 fold
ELISA titer (1/log10 dilution) (DENV-3 (H87) virions): < 1 log10 reciprocal dilution
binding result (DENV-3 (H87) virions): no binding
ELISA titer (1/log10 dilution) (DENV-4 (814669) virions): < 1 log10 reciprocal dilution
binding result (DENV-4 (814669) virions): no binding
binding result [6]: no binding
ELISA titer (1/log10 dilution) [7]: 4.2 log10 reciprocal dilution
EC50 [8]: ~0.5 nM
Kd [9]: 110 nM
koff [9]: 0.0046 s⁻¹
kon [9]: 42000 M⁻¹ s⁻¹
Kd [10]: 0.28 nM

B2: humanized MAb B2 (antibody, V domains shown)
VH: VQLLEQSGSEVKKPGASVKVSCKASGYPFTDYAMSWVRQAPGQGLEYMGWIFTNSGNPTYAPGFAGRFVFSLDISVNTAYLHIDSLKPEDTAVYYCARGIVTPAASGDYFDSWGQGTLVTVSS
VL: ELVLTQSPSSLSASIGDRVTITCRASQHISSWLAWYQQKPGKAPKPLIYAASSLKSGVPSRFSGSGSGTDFTLTISGLQPEDFATYYCQQYENSPVTFGGGTKVEIKR
occupancy of accessible antibody sites on the virion at neutralization [11]: ~28%
PRNT50 titer [4]: 0.03 nM
PRNT50 titer [12]: 0.02 nM
PRNT50 titer [13]: 0.02 nM
PRNT50 titer [14]: 0.02 nM
PRNT50 titer [15]: 2 nM
PRNT50 [16]: 0.005 µg/mL
PRNT50 (µg/ml) of MAb 1 alone [17]: 0.005 µg/mL
Kd [10]: 0.08 nM

B3: Fab A3 (Fab, V domains shown)
VH: EVQLLESGAEVKKPGSSVRISCKVSGTPYSSYVMNWVRQAPGQGLEWMGVFVPSLDRALYAQNFQGRLSITADTTTTYMELTSLKFEDTAVYYCATDFSVGWLRPLDRWGQGTLVTVSS
VL: ELQMTQSPSSLSASVGDRVTITCRASQGISNYLAWYQQKPGKAPKLLIYYASRLESGVPSRFSGSGSGTDYTLTISSLQPEDFATYYCQQYNSNPFTFGPGTKVDIKR
PRNT50 titer [2]: 2.55 nM
PRNT50 [3]: 2.55 nM
PRNT50 titer [4]: 2.55 nM
ELISA titer (1/log10 dilution) (DENV-3 (H87) virions): < 1 log10 reciprocal dilution
binding result (DENV-3 (H87) virions): no binding
ELISA titer (1/log10 dilution) (DENV-4 (814669) virions): < 1 log10 reciprocal dilution
binding result (DENV-4 (814669) virions): no binding
binding result [6]: no binding
ELISA titer (1/log10 dilution) [7]: 4.7 log10 reciprocal dilution
EC50 [8]: ~10 nM
Kd [9]: 0.72 nM
koff [9]: 2.8e-05 s⁻¹
kon [9]: 40000 M⁻¹ s⁻¹
Kd [10]: 0.45 nM

B4: humanized MAb A3 (antibody, V domains shown)
VH: EVQLLESGAEVKKPGSSVRISCKVSGTPYSSYVMNWVRQAPGQGLEWMGVFVPSLDRALYAQNFQGRLSITADTTTTYMELTSLKFEDTAVYYCATDFSVGWLRPLDRWGQGTLVTVSS
VL: ELQMTQSPSSLSASVGDRVTITCRASQGISNYLAWYQQKPGKAPKLLIYYASRLESGVPSRFSGSGSGTDYTLTISSLQPEDFATYYCQQYNSNPFTFGPGTKVDIKR
occupancy of accessible antibody sites on the virion at neutralization [11]: 45%
PRNT50 titer [4]: 0.2 nM
PRNT50 titer [12]: 0.04 nM
PRNT50 titer [13]: 0.04 nM
PRNT50 titer [14]: 0.2 nM
PRNT50 titer [15]: 0.07 nM
PRNT50 [16]: 0.04 µg/mL
PRNT50 (µg/ml) of MAb 1 alone [17]: 0.04 µg/mL
Kd [10]: 0.15 nM

B5: Fab E3 (Fab, V domains shown)
VH: EVQLLESGPGLVRPSQTLSLTCAVSGASISGPLSYWTWIRQSPGKKMEHIGSMFYSGNTYYNPSLKGRITMSVDTSRNQFSLNLNSVTVADTAVYFCARRRETELFGLPIDYWGQGILVTVSS
VL: ELTQSPATLSVSPGERATLSCRASERISSSYLSWYQQKPGQAPRLLMYGTSTRATGIPARFSGSGSGTDFTLTISSLQPEDFAVYFCQQDYNLPWTFGQGTKLEIKR
PRNT50 titer [2]: 84.9 nM
PRNT50 [3]: 84.9 nM
PRNT50 titer [4]: 84.9 nM
ELISA titer (1/log10 dilution) (DENV-3 (H87) virions): < 1 log10 reciprocal dilution
binding result (DENV-3 (H87) virions): no binding
ELISA titer (1/log10 dilution) (DENV-4 (814669) virions): < 1 log10 reciprocal dilution
binding result (DENV-4 (814669) virions): no binding
binding result [6]: no binding
ELISA titer (1/log10 dilution) [7]: 4.2 log10 reciprocal dilution
EC50 [8]: ~100 nM
Kd [9]: 0.35 nM
koff [9]: 3.6e-05 s⁻¹
kon [9]: 100000 M⁻¹ s⁻¹
Kd [10]: 0.98 nM

B6: humanized MAb E3 (antibody, V domains shown)
VH: EVQLLESGPGLVRPSQTLSLTCAVSGASISGPLSYWTWIRQSPGKKMEHIGSMFYSGNTYYNPSLKGRITMSVDTSRNQFSLNLNSVTVADTAVYFCARRRETELFGLPIDYWGQGILVTVSS
VL: ELTQSPATLSVSPGERATLSCRASERISSSYLSWYQQKPGQAPRLLMYGTSTRATGIPARFSGSGSGTDFTLTISSLQPEDFAVYFCQQDYNLPWTFGQGTKLEIKR
occupancy of accessible antibody sites on the virion at neutralization [11]: 66%
PRNT50 titer [4]: 0.93 nM
PRNT50 titer [12]: 0.21 nM
PRNT50 titer [13]: 0.14 nM
PRNT50 titer [14]: 0.71 nM
PRNT50 titer [15]: 0.36 nM
PRNT50 [16]: 0.09 µg/mL
PRNT50 (µg/ml) of MAb 1 alone [17]: 0.09 µg/mL
Kd [10]: 0.31 nM
